We go through 38 sequences from the Immune Epitope Database (IEDB).

Experiment [1] concerns the target HLA-A*02:01. Briefly: IEDB peptide-MHC binding, purified MHC/competitive/radioactivity; filed as Kd, often an IC50 or EC50 that approximates it; ≥ and ≤ were set here for values at or beyond the usual limits of such assays.
A further experiment addresses HLA-A*30:01. Described as above.
Experiment [2] addresses HLA-A*02:01. Briefly: IEDB peptide-MHC binding, purified MHC/competitive/fluorescence; ≥ and ≤ were set here for values at or beyond the usual limits of such assays.
Experiment [3] deals with HLA-A*24:02. The description is as above.
For another experiment, the target named is HLA-B*44:02. Briefly: IEDB peptide-MHC binding, purified MHC/competitive/radioactivity; filed as Kd, often an IC50 or EC50 that approximates it; ≥ and ≤ were set here for values at or beyond the usual limits of such assays.
The next experiment deals with HLA-A*02:03. Described as above. As to conditions: source organism: Homo sapiens.
Another experiment deals with HLA-A*31:01. Briefly: IEDB peptide-MHC binding, purified MHC/direct/fluorescence; filed as Kd, often an IC50 or EC50 that approximates it; ≥ and ≤ were set here for values at or beyond the usual limits of such assays.
The next experiment deals with HLA-A*03:01. The experiment is described as above.
The target of the next experiment is HLA-B*15:01. The experiment is described as above.
The next experiment concerns the target HLA-A*33:01. Briefly: IEDB peptide-MHC binding, purified MHC/competitive/radioactivity; filed as Kd, often an IC50 or EC50 that approximates it; ≥ and ≤ were set here for values at or beyond the usual limits of such assays.
The target of another experiment is HLA-A*26:01. The description is as above.
The target in a further experiment is HLA-A*23:01. The experiment is described as above.
The next experiment addresses HLA-B*51:01. Described as above. To be noted: source organism: Dengue virus 1 Singapore/S275/1990.
In another experiment the target is HLA-A*30:02. The description is as above. To be noted: source organism: Dengue virus 4 Philippines/H241/1956.
The next experiment has as its target HLA-A*11:01. Briefly: IEDB peptide-MHC binding, purified MHC/direct/fluorescence; filed as Kd, often an IC50 or EC50 that approximates it; ≥ and ≤ were set here for values at or beyond the usual limits of such assays. To be noted: source organism: SARS-CoV1.
A further experiment concerns the target HLA-B*27:05. The description is as above. As to conditions: source organism: SARS-CoV1.
The next experiment deals with HLA-A*02:06. Briefly: IEDB peptide-MHC binding, purified MHC/competitive/radioactivity; filed as Kd, often an IC50 or EC50 that approximates it; ≥ and ≤ were set here for values at or beyond the usual limits of such assays. To be noted: source organism: Dengue virus 2 Jamaica/1409/1983.
Experiment [4] addresses HLA-A*24:02. The experiment is described as above. To be noted: source organism: Dengue virus 4 Philippines/H241/1956.
The target in experiment [5] is HLA-A*02:01. Briefly: IEDB peptide-MHC binding, purified MHC/direct/fluorescence; filed as Kd, often an IC50 or EC50 that approximates it; ≥ and ≤ were set here for values at or beyond the usual limits of such assays. As to conditions: source organism: SARS-CoV1.
A further experiment deals with HLA-A*69:01. The description is as above. As to conditions: source organism: SARS-CoV1.
The next experiment concerns the target HLA-A*68:01. Briefly: IEDB peptide-MHC binding, purified MHC/competitive/radioactivity; filed as Kd, often an IC50 or EC50 that approximates it; ≥ and ≤ were set here for values at or beyond the usual limits of such assays. To be noted: source organism: SARS coronavirus Tor2.
Where [6] appears, read: source organism: Human alphaherpesvirus 1 strain 17.
Setting [7] is: source organism: Lassa virus Josiah.
[8] abbreviates: source organism: Vaccinia virus WR.
Where [9] appears, read: source organism: Dengue virus 1 Brazil/97-11/1997.
Where [10] appears, read: source organism: Zaire ebolavirus.
[11] abbreviates: source organism: Dengue virus 3 Martinique/1243/1999.
Setting [12] is: source organism: Haemophilus influenzae.
Setting [13] is: source organism: Dengue virus 4 Philippines/H241/1956.
The mark [14] stands for this setting: source organism: Vaccinia virus Copenhagen.
Setting [15] is: source organism: Dengue virus 2 Jamaica/1409/1983.
Setting [16] is: source organism: Sudan ebolavirus.

In the case of NLLTTPKFT, the Kd with HLA-A*02:01 [1] (setting [6]) was 500 nM. On to GMSGGNQGA, for which the Kd with HLA-A*02:01 [1] (setting [7]) turned out to be 12500 nM. For the sequence RTKITSLPL, in the experiment with HLA-A*30:01 (setting [8]), the Kd came to 0.0866 nM. Turning to PLEEELPR, the Kd with HLA-A*02:01 [1] (source organism: Hepatitis B virus) is no less than 25000 nM.

With SGVLWDTPSP, in the experiment with HLA-A*30:01 (setting [9]), the Kd is no less than 70400 nM. Regarding PTAWQSVGH, the IC50 with HLA-A*02:01 [2] (setting [10]) was no less than 264000 nM; with HLA-A*24:02 [3] (setting [10]) it was 28700 nM. With ILDKVLVHP, in the experiment with HLA-A*02:01 [1] (source organism: Homo sapiens), the Kd stood at 4080 nM.

As to NEMILLTMK, in the experiment with HLA-B*44:02 (setting [11]), the dissociation constant (Kd) is 824 nM. On to ALPHAILRL, for which the Kd turned out to be 128 nM in the experiment with HLA-A*02:01 [1] (source organism: Homo sapiens) and 7.87 nM with HLA-A*02:03. For the sequence ILKEHVSRY, the Kd with HLA-A*31:01 (setting [12]) was 5580 nM; with HLA-A*03:01 (setting [12]), 3180 nM; in the experiment with HLA-B*15:01 (setting [12]) it was 531 nM. In the case of EVKTCIWPK, the Kd with HLA-A*33:01 (setting [9]) came out at 2.82 nM; with HLA-A*30:01 (setting [9]), 1350 nM.

Consider LCRTSCLQK, for which the Kd with HLA-A*30:01 (setting [13]) came to 1350 nM. For the sequence KRDGVKRLE, the IC50 in the experiment with HLA-A*24:02 [3] (setting [10]) was no less than 173000 nM.

Turning to TVIEHLERL, the Kd with HLA-A*26:01 (setting [11]) is 81.1 nM. For the sequence WLVSNGSYL, the Kd with HLA-A*02:01 [1] (setting [7]) came to 1790 nM. Regarding KIKSSNSSK, in the experiment with HLA-A*30:01 (setting [8]), the Kd worked out at 14.6 nM.

For MFLIAENKI, the results for the Kd in the experiment with HLA-A*23:01 (source organism: Dengue virus 1 Singapore/S275/1990) and with HLA-B*51:01 were 913 nM and 2760 nM, respectively. Consider NVWEVEDYGF, for which the dissociation constant (Kd) in the experiment with HLA-A*23:01 (setting [11]) was 175 nM. DRERLKVFL registered an IC50 with HLA-A*24:02 [3] (source organism: Variola virus) of no less than 169000 nM. IVRDSMWYI: in the experiment with HLA-A*30:01 (setting [14]), the Kd is 19.7 nM. Turning to ALLEDPVGT, the IC50 in the experiment with HLA-A*02:01 [2] (setting [6]) turned out to be 28 nM. As for VLQTFMRMA, the Kd with HLA-A*02:01 [1] (setting [7]) is no less than 5000 nM. Take CSRLQTCIK: the Kd with HLA-A*30:01 (setting [14]) is 44 nM.

In the experiment with HLA-A*24:02 [3] (source organism: Variola virus), QREIFSAWI yielded an IC50 of no less than 76300 nM. In the experiment with HLA-A*02:01 [2] (setting [10]), LNLSGVNNL gave an IC50 of no less than 77500 nM. As to ISRSRRLFA, in the experiment with HLA-A*30:01 (setting [8]), the Kd amounted to 2.23 nM. As for EKTKTDFGFY, the Kd turned out to be 9240 nM with HLA-A*26:01 (setting [13]) and 20.1 nM in the experiment with HLA-A*30:02. In the case of AVPSHWVPTS, the Kd with HLA-A*30:01 (setting [15]) is 15000 nM. Regarding MDSRPQKIW, the IC50 in the experiment with HLA-A*02:01 [2] (setting [10]) was no less than 191000 nM; with HLA-A*24:02 [3] (setting [10]), 67800 nM.

For the sequence RHYSASFKK, the Kd in the experiment with HLA-A*11:01 was 705 nM; in the experiment with HLA-B*27:05 it was 282 nM; with HLA-A*31:01 (source organism: SARS-CoV1) it was 1250 nM; in the experiment with HLA-A*03:01 (source organism: SARS-CoV1) it was 341 nM. With GLNLEGSGV, the IC50 in the experiment with HLA-A*02:01 [2] (setting [16]) worked out at 3860 nM. With RTLRVLNLV, the Kd with HLA-A*02:06 worked out at 10.2 nM; with HLA-A*30:01 (setting [15]), 222 nM. Take CTILAAVSVS: the results for the Kd with HLA-A*26:01 (setting [15]) and with HLA-A*30:01 (setting [15]) were no less than 55900 nM and 2830 nM, respectively. HTIENTSAN: the dissociation constant Kd with HLA-A*26:01 (setting [13]) is 4840 nM. Regarding LWVAEIQPQW, the Kd with HLA-A*23:01 (setting [13]) came to 1380 nM; with HLA-A*24:02 [4], 312 nM. On to HEMYWVSCG, for which the Kd in the experiment with HLA-B*44:02 (setting [9]) turned out to be 37.4 nM.

For TVTGILGSL, the IC50 with HLA-A*02:01 [2] (setting [16]) is 22500 nM; with HLA-A*24:02 [3] (setting [16]), no less than 76800 nM. As to KLFAAETLK, the Kd was no less than 29200 nM in the experiment with HLA-A*02:01 [5]; 2180 nM in the experiment with HLA-B*27:05; 173 nM with HLA-A*31:01 (source organism: SARS-CoV1); 15900 nM with HLA-A*69:01; no less than 21300 nM in the experiment with HLA-B*15:01 (source organism: SARS-CoV1); 399 nM in the experiment with HLA-A*68:01. For the same sequence, in the experiment with HLA-A*33:01 (source organism: SARS coronavirus Tor2), the Kd came out at 13600 nM.

Broadly, the Kd is the free concentration of one partner at which half of the binding sites on the other are occupied at equilibrium, for simple one-to-one binding. One may read the IC50 as the point on the concentration scale where inhibition reaches its midpoint. A low value points to greater potency in that assay.
